Assay results reported in patent publication US20250262210A1 (TRUSTEES OF COLUMBIA UNIVERSITY IN THE CITY OF NEW YORK, published 2025).

Target: T1, WDR6 (human, UniProt Q9NNW5 1-1121)
T1 sequence (looked up): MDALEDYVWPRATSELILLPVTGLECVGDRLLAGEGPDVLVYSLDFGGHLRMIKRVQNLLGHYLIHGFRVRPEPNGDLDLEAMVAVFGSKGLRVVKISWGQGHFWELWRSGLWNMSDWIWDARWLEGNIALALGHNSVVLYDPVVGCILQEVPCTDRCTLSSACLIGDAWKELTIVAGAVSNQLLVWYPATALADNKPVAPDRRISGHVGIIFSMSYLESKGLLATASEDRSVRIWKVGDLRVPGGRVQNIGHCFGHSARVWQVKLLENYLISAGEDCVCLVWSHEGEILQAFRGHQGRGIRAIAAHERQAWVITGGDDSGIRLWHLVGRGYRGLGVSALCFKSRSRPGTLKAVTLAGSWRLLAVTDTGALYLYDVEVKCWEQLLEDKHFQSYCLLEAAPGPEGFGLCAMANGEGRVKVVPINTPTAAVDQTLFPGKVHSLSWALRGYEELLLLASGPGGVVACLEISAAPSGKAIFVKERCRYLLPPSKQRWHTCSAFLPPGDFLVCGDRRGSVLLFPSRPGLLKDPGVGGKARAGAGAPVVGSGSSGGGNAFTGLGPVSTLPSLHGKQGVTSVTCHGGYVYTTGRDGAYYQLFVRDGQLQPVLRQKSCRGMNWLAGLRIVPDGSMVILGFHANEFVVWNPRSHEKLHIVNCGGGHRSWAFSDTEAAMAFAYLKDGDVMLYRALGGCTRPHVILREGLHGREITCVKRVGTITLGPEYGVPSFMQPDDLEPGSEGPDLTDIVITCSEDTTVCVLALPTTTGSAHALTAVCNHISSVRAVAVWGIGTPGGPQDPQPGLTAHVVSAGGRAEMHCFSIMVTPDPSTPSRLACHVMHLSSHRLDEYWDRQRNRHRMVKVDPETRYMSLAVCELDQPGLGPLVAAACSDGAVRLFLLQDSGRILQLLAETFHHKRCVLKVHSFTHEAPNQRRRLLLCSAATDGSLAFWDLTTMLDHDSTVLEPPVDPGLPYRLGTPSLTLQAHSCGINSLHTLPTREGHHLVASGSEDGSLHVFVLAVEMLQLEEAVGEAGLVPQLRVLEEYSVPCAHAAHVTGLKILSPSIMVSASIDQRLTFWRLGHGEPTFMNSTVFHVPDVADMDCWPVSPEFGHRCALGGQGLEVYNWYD
Experiment: IP/MS, LZTR1 wild type-FLAG, U87
How it was run: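 Extracted peptides in 3% acetonitrile/0.1% formic acid ran on a 50 cm C18 column into an Orbitrap Fusion, with MaxQuant identification and spectral counting.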

B1: LZTR1-FLAG (other, human, UniProt Q8N653 1-840, looked up)
chain: MAGPGSTGGQIGAAALAGGARSKVAPSVDFDHSCSDSVEYLTLNFGPFETVHRWRRLPPCDEFVGARRSKHTVVAYKDAIYVFGGDNGKTMLNDLLRFDVKDCSWCRAFTTGTPPAPRYHHSAVVYGSSMFVFGGYTGDIYSNSNLKNKNDLFEYKFATGQWTEWKIEGRLPVARSAHGATVYSDKLWIFAGYDGNARLNDMWTIGLQDRELTCWEEVAQSGEIPPSCCNFPVAVCRDKMFVFSGQSGAKITNNLFQFEFKDKTWTRIPTEHLLRGSPPPPQRRYGHTMVAFDRHLYVFGGAADNTLPNELHCYDVDFQTWEVVQPSSDSEVGGAEVPERACASEEVPTLTYEERVGFKKSRDVFGLDFGTTSAKQPTQPASELPSGRLFHAAAVISDAMYIFGGTVDNNIRSGEMYRFQFSCYPKCTLHEDYGRLWESRQFCDVEFVLGEKEECVQGHVAIVTARSRWLRRKITQARERLAQKLEQEAAPVPREAPGVAAGGARPPLLHVAIREAEARPFEVLMQFLYTDKIKYPRKGHVEDVLLIMDVYKLALSFQLCRLEQLCRQYIEASVDLQNVLVVCESAARLQLSQLKEHCLNFVVKESHFNQVIMMKEFERLSSPLIVEIVRRKQQPPPRTPLDQPVDIGTSLIQDMKAYLEGAGAEFCDITLLLDGHPRPAHKAILAARSSYFEAMFRSFMPEDGQVNISIGEMVPSRQAFESMLRYIYYGEVNMPPEDSLYLFAAPYYYGFYNNRLQAYCKQNLEMNVTVQNVLQILEAADKTQALDMKRHCLHIIVHQFTKVSKLPTLRSLSQQLLLDIIDSLASHISDKQCAELGADI
notes: Expressed in HEK 293T, HeLa or U87 cells; used as cell lysate; also called LZTR1 wild type-FLAG; LZTR1 WT; not shown: FLAG tag at the C-terminus
binding result: binds
